In patent US5976877:

Molecular target: HLA class II molecules on the Burkitt lymphoma line Raji

rosette formation / adhesion of Raji cells to transfected COS-7 cells: 23%
B1: LAG-3 protein (Lymphocyte Activation Gene-3), mature membrane protein of 470 amino acids (receptor)
chain: VPVVWAQEGAPAQLPCSPTIPLQDLSLLRRAGVTWQHQPDSGPPAAAPGHPLAPGPHPAAPSSWGPRPRRYTVLSVGPGGLRSGRLPLQPRVQLDERGRQRGDFSLWLRPARRADAGEYRAAVHLRDRALSCRLRLRLGQASMTASPPGSLRASDWVILNCSFSRPDRPASVHWFRNRGQGRVPVRESPHHHLAESFLFLPQVSPMDSGPWGCILTYRDGFNVSIMYNLTVLGLEPPTPLTVYAGAGSRVGLPCRLPAGVGTRSFLTAKWTPPGGGPDLLVTGDNGDFTLRLEDVSQAQAGTYTCHIHLQEQQLNATVTLAIITVTPKSFGSPGSLGKLLCEVTPVSGQERFVWSSLDTRSQRSFSGPWLEAQEAQLLSQPWQCQLYQGERLLGAAVYFTELSSPGAQRSGRAPGALPAGHLLLFLTLGVLSLLLLVTGAFGFHLWRRQWRPRRFSALEQGIHPRRLRAR
